From the supplement of paper PMC11865577

Tests used:
Assay in all cases: pull-down binding Z-score (relative to library population); higher = stronger binding
[1] = system: G-clamp-N3 (biotin conjugate); settings: RNA library: Library-1 (pre-miRNA loops + repeats)
Summary of the method: (§1)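 Streptavidin beads with 100 pmol of biotin-conjugated small molecule were incubated for 60 min at 25 °C with 1 μg of heat-folded Cy5- or Cy3-end-labelled RNA library in phosphate/NaCl/KCl buffer. Bound RNA was eluted in hot SDS after three washes and hybridised to a DNA barcode microarray at 55.5 °C for 20 h. Each binding score is a library-referenced Z-score, computed after beads-only subtraction and a trimmed mean of barcoded replicate probes.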

[2] = system: TO-3-N3 (biotin conjugate); settings: RNA library: Library-2
Summary of the method: as §1

[3] = system: TO-3-N3-2 (biotin conjugate); settings: RNA library: Library-2
Summary of the method: as §1

TO-N3 (biotin conjugate) = settings: RNA library: Library-2
Summary of the method: as §1

[4] = system: TO-N3-2 (biotin conjugate); settings: RNA library: Library-2
Summary of the method: as §1

| Sequence | pull-down binding Z-score [1] | pull-down binding Z-score [2] | pull-down binding Z-score [3] | pull-down binding Z-score (TO-N3 (biotin conjugate)) | pull-down binding Z-score [4] |
| --- | --- | --- | --- | --- | --- |
| UAUAGGAAGGAAAUCUUAU [hsa-mir-6129] | -0.636 | -0.671 | -0.279 | -0.641 | -0.517 |
| UAUAGUGUGUUUGAUUUGCACUGUA [hsa-mir-4703] | 0.116 | -0.156 | -0.198 | -0.424 | -1.07 |
| UAUAUACUGAUGUAAUUUUCCUUGGAUUUAUAUGCAGUACUGAG [hsa-mir-6130] | -0.931 | 0.00904 | 0.252 | 0.102 | -0.225 |
| UAUAUGCUUUUUAAAUGGGGCACAGA [hsa-mir-5586] | 2 | -0.275 | 0.0323 | -0.26 | -0.177 |
| UAUAUUCGGUUUAUUGACAUGGAAUAUA [hsa-mir-381] | 2.02 | 0.718 | 0.106 | 0.706 | -0.284 |
| UAUCUAUAUAUAUGUGUA [hsa-mir-3171] | -0.471 | -0.0511 | -0.0303 | -0.0908 | 0.835 |
| UAUGAAGGUAAGCAUUUUUGUA [hsa-mir-3935] | -0.00708 | -0.615 | -0.263 | -0.614 | -0.419 |
| UAUGACCAGGCCAUAGUAAACAUCAUA [hsa-mir-4744] | 1.78 | -0.475 | 0.312 | -0.247 | -0.124 |
| UAUGCAAAGCUCUGACAGUGUUUCACUUGCUA [hsa-mir-7848] | 0.148 | -0.489 | -0.145 | -0.256 | -0.0647 |
| UAUGCCAUUAAAAGUAAUGGUAAA [hsa-mir-548aj-1] | -0.52 | -0.859 | -0.508 | -1.23 | -1.2 |
| UAUGCCUACAAAAUCCCUCCAGACUGGCAUA [hsa-mir-4666a] | -0.858 | -0.599 | -0.346 | -0.78 | -0.743 |
| UAUGUGAUUCUACUGCUCACUCAUAUA [hsa-mir-135a-1] | -0.239 | 0.402 | -0.191 | 0.212 | -0.519 |
| UAUUCGCUUUAUUGACUUCGAAUA [hsa-mir-369] | -0.422 | -0.0221 | -0.144 | -0.246 | -0.736 |
| UAUUCUCUAU [hsa-mir-2054] | -1.01 | 0.52 | -0.276 | 0.367 | -0.297 |
| UAUUCUGAUGUCCAAGUGGAAA [hsa-mir-372] | -0.198 | -0.733 | -0.345 | -0.772 | -0.504 |
| UAUUGCAAAGAUUUUCAAUA [hsa-mir-3915] | -0.191 | -0.611 | -0.307 | -0.988 | -1.1 |
| UAUUGGGCCAAUUCCCCCAAUG [hsa-mir-4781] | -1.57 | -1.13 | -0.791 | -1.38 | -1.12 |
| UAUUGUGUUGAUCAACAAUA [hsa-mir-5590] | -0.46 | -0.858 | -0.465 | -0.668 | -0.668 |
| UAUUUCAAAAGACUAGAGGUAGGAAAUGAG [hsa-mir-3975] | 2.94 | -0.57 | 0.381 | -0.42 | -0.211 |

| Sequence | pull-down binding Z-score [1] | pull-down binding Z-score [2] | pull-down binding Z-score [3] | pull-down binding Z-score (TO-N3 (biotin conjugate)) | pull-down binding Z-score [4] |
| --- | --- | --- | --- | --- | --- |
| UAUUUUGUUAUUCUGGUCACAGAAUGACCUAGUA [hsa-mir-630] | -1.22 | 0.141 | -0.134 | -0.308 | -1.11 |
| UCAAACAAGUUUCCAAAUUGUUUGA [hsa-mir-488] | -0.178 | 0.554 | -0.496 | 0.194 | -1.02 |
| UCACAAUUGCGCUACAGAACUGUUGA [hsa-mir-203b] | 0.254 | 0.859 | 0.314 | 1.12 | 0.308 |
| UCACAGGGCUCAGGGAAUGUGUCUGCACCUGUGA [hsa-mir-587] | 0.296 | 0.431 | 0.0576 | 0.469 | 0.206 |
| UCACAGUUGGUUUCUGACACGUGG [hsa-mir-4535] | 0.283 | 0.237 | -0.0393 | 0.305 | -0.0476 |
| UCACUGCUGCUGGCGCCCUGA [hsa-mir-943] | -0.764 | 0.0735 | 0.0365 | 0.432 | 0.911 |
| UCACUGUGAACAGUCUCAGUCAGUGA [hsa-mir-183] | -0.0454 | -0.81 | -0.331 | -0.919 | -0.631 |
| UCAGACACAUCAGAUCCCUUAUCUGUAAAAUGGGCAUGA [hsa-mir-640] | 0.152 | -0.19 | -0.013 | 0.00353 | 0.521 |
| UCAGAUAUUUAAGUUAACAGUAUUUGA [hsa-mir-580] | 0.0815 | -0.784 | -0.347 | -1.1 | -1.5 |
| UCAGCACCUGAACGCCAAGGCUGG [hsa-mir-3150a] | 0.168 | -0.481 | -0.591 | -0.348 | 0.123 |
| UCAGCCCCAUAUGUAUCUGAAGGCUGA [hsa-mir-5694] | -0.92 | -0.404 | -0.286 | -0.337 | 0.0924 |
| UCAGCUGUAAUACAUGGAUUGGCUGG [hsa-mir-30b] | 0.592 | -0.368 | -0.198 | -0.379 | -0.252 |
| UCAGCUGUGAGCUCAAGGUGGCUGG [hsa-mir-30c-1] | 1.32 | 0.424 | 0.093 | 0.804 | 0.98 |
| UCAGCUGUGGAAAGUAAGAAAGCUGG [hsa-mir-30c-2] | -0.0598 | 0.97 | 1.22 | 1.28 | 1.31 |
| UCAGGAUCUACUCAUGUCGUCUUUGG [hsa-mir-573] | -1.01 | -0.404 | -0.199 | -0.165 | 0.472 |
| UCAGGCUUUAAUGUUUGAAGUAAUGUCAGU [hsa-mir-6874] | 0.286 | 0.511 | 0.146 | 0.555 | 0.228 |
| UCAGGGAGAAAGUGCAUACAGCCCCUG [hsa-mir-328] | -0.344 | -0.47 | -0.166 | -0.112 | 0.36 |
| UCAGGUGAAUGUGUCUGG [hsa-mir-3916] | -1.06 | -0.539 | -0.427 | -0.773 | -0.347 |
